From patent US12319739 (F STAR DELTA, dated 2025)

T1: cMSLN-His-Avi (cynomolgus, single biotin on the Avi tag in the biotinylated form)
T1 construct: Monomeric; also called cyno MSLN-His-Avi; cMSLN-Avi-His
T1 chain: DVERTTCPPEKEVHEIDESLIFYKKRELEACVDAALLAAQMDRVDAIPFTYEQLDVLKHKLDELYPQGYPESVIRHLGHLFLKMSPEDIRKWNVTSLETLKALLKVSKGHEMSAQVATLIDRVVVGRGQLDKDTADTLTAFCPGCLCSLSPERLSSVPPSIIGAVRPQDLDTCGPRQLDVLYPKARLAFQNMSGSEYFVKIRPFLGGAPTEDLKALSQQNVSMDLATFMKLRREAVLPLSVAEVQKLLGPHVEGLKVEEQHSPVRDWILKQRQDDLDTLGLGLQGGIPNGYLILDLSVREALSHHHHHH


Legend:
hMSLN-His-Avi [1] = target: T2, hMSLN-His-Avi (human, UniProt Q13421 296-598, single biotin on the Avi tag in the biotinylated form); test: ratio of SPR KDs
T2 construct: Monomeric; also called human MSLN-His-Avi; hMSLN-Avi-His
Experimental: (§1) 7.1 Binding of CD137/MSLN mAb2 to Human MSLN Under Avid Conditions—Antigen Capture Method Binding of all mAb^2 to MSLN immobilised on a BIAcore chip was tested to determine the binding affinity to human MSLN under avid conditions, where a high concentration of immobilised antigen is available to allow the antibody to bind avidly. […] The association time was 5 min and the dissociation time was 10 min. Running buffer was HBS-EP (GE Healthcare BR100188). Flow cells were regenerated by injecting Glycine-HCl pH1.5 at a flow rate of 30 μl/min for 30 seconds. Data were analysed by double referencing against a flow cell which was intentionally left blank (no antigen coating). The binding kinetics were fitted with a 1:1 Langmuir model to generate binding association (k_a) and dissociation (k_d) rates. Equilibrium binding constants (K_D) were calculated by dividing the dissociation rate by the association rate for each sample. Data analysis was performed with BiaEvaluation software version 3.2.
(§2) The association time was 5 min and the dissociation time was 5 min. Running buffer was HBS-EP (GE Healthcare BR100188). Flow cells were regenerated by injecting Glycine-HCl pH2.1 at a flow rate of 30 μl/min for 15 seconds. The data was analysed as described in Example 7.1.

[2] = target: human CD137 on primary human CD8+ T cells (human, UniProt Q07011 24-255); test: cell-based or functional assay
[3] = target: T3, endogenous cell surface human MSLN (human, UniProt Q13421 296-598); test: flow cytometry, NCI-H226 cells
T3 construct: whole, on cells; The cell line is named under assay; also called cell-surface MSLN on NCI-H226, OVCAR-3 and AsPC-1 cells
Experimental: (§3) To confirm binding to cell surface MSLN, mAb² listed in Table 9 were analysed for binding to endogenous cell surface MSLN on the human lung cancer cell line NCI-H226. In addition, and because MSLN can be found in blood in a shed soluble form, there is a risk that this circulating MSLN might affect exposure and ultimately potency of our mAb². To confirm that presence of soluble MSLN has minimal impact, additional binding experiments to NCI-H226 cells were performed in the presence of 20 nM soluble MSLN which is 10-20 times the level of soluble MSLN found to be of diagnostic value for defining malignant mesothelioma and lung cancer patients as MSLN positive (Cui et al., 2014). Briefly, NCI-H226 cells (ATCC CRL-5826) were harvested from T175 cell culture flasks using Accutase (Gibco, A11105-01).
(§4) In both cases, cells were centrifuged at 1200 rpm for 3 min and resuspended in ice cold FACS buffer made up of DPBS (Life Technologies, 14190169) and 1% BSA (Sigma-Aldrich, A7906) at 2×10⁶ cells/ml and 50 μl per well was seeded in a 96-well V-bottom plate (Costar, 3894). All antibodies tested were diluted in FACS buffer in 120 μl at a concentration range of 0.01-200 nM (4-fold dilutions). The NCI-H226 cells were then centrifuged, supernatant removed and cells resuspended in 100 μl of each mAb dilution and incubated at 4° C. for 45 min. Cells were washed twice by centrifugation with 150 μl FACS buffer, resuspended in 100 μl containing goat anti-human IgG (γ-chain specific) F(ab')2 fragment-R-Phycoerythrin antibody (Sigma, P8047) diluted 1:1000 in FACS buffer and incubated at 4° C. for 45 min. The cells were washed once with 150 μl FACS buffer and then with 150 μl DPBS, resuspended in 150 μl DPBS containing DAPI (Biotium, 40043) at 1:10.000 and read on the BDCantoII or iQue (Intellicyt).

[4] = target: T3, endogenous cell surface human MSLN; test: flow cytometry, NCI-H226 cells + 20 nM soluble MSLN
Experimental: as §3, §4

hMSLN-His-Avi [5] = target: T2, hMSLN-His-Avi; test: SPR, hMSLN-His-Avi immobilised ~100 RU, mAb2 injected
Experimental: as §1

cMSLN-His-Avi = target: T1, cMSLN-His-Avi; test: SPR, mAb2 captured on Protein G, cMSLN-His-Avi in solution
Experimental: as §2

hMSLN-His-Avi [6] = target: T2, hMSLN-His-Avi; test: SPR, mAb2 captured on Protein G, hMSLN-His-Avi in solution
Experimental: as §2

T3 sequence (Q13421 other isoform, or with tags, fused parts or gaps limits assumed): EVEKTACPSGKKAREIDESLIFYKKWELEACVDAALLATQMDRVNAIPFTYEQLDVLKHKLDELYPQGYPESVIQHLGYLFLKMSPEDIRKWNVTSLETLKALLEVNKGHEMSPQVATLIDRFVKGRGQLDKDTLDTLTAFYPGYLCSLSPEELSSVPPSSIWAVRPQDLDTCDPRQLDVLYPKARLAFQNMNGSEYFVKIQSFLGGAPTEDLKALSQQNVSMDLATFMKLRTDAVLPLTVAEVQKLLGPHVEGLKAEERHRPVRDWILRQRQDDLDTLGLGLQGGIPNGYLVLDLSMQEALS
T2 sequence (Q13421 other isoform, or with tags, fused parts or gaps): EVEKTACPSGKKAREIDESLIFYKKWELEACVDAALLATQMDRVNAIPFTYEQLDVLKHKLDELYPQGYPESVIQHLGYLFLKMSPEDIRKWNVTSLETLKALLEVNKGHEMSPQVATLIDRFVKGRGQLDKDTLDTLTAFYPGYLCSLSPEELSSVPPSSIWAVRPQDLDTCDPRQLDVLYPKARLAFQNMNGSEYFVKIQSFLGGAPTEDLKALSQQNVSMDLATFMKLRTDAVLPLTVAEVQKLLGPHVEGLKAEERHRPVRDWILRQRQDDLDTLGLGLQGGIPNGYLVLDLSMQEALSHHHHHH
Chain of human CD137 on primary human CD8+ T cells (Q07011 24-255): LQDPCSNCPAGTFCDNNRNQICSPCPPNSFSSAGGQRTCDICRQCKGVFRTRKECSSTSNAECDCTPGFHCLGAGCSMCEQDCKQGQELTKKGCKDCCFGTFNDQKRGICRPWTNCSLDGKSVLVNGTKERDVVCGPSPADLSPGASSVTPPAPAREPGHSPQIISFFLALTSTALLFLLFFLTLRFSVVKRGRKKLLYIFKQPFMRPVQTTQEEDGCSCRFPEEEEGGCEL

Row | Binder | KD ratio in solution/immobilised human MSLN (hMSLN-His-Avi [1]) | Emax (IL-2 pg/ml), NCI-H226 co-culture, Donor A [2] [pg/mL] | Emax (IL-2 pg/ml), NCI-H226 co-culture, Donor B [2] [pg/mL] | IL-2 release EC50, NCI-H226 co-culture, Donor A [2] [nM] | IL-2 release EC50, NCI-H226 co-culture, Donor B [2] [nM] | EC50 [3] [nM] | Emax (MFI) [3] [MFI] | EC50 [4] [nM] | Emax (MFI) [4] [MFI] | Kd (hMSLN-His-Avi [5]) [nM] | Kd (cMSLN-His-Avi) [nM] | Kd (hMSLN-His-Avi [6]) [nM]
1 | FS22-172-003-AA/FS28-024 (bispecific antibody, human IgG1, kappa, L234A L235A, V domains shown, IgG1 mAb^2 with LALA; also called FS28-024 in CD137 mAb^2 format) VH: EVQLLESGGGLVQPGGSLRLSCAASGFTLSYSSMSWVRQAPGKGLEWVSFITPSTGYTHYADSVKGRFTISRDNSKNTLYLQMNSLRAEDTAVYYCARRALTFDYWGQGTLVTVSS VL: EIVLTQSPGTLSLSPGERATLSCRASQSVSSSYLAWYQQKPGQAPRLLIYGASSRATGIPDRFSGSGSGTDFTLTISRLEPEDFAVYYCQQASSYPLTFGQGTKVEIKR | 119 | 1120 | 1380 | 0.02 | 0.03 | 0.389 | 773000 | 3.05 | 792000 | 0.39 | 170 | 46.5
2 | FS22-172-003-AA/FS28-256-005 (bispecific antibody, human IgG1, kappa, L234A L235A, V domains shown, IgG1 mAb^2 with LALA) VH: EVQLLESGGGLVQPGGSLRLSCAASGFTFTETYMSWVRQAPGKGLEWVSNISPTYSTTNYADSVKGRFTISRDNSKNTLYLQMNSLRAEDTAVYYCARYNSYQGGLDYWGQGTLVTVSS VL: EIVLTQSPGTLSLSPGERATLSCRASQSVSSSYLAWYQQKPGQAPRLLIYGASSRATGIPDRFSGSGSGTDFTLTISRLEPEDFAVYYCQQALGYPHTFGQGTKVEIKR | – | 1100 | – | 1.63 | – | 0.729 | 441000 | 0.856 | 424000 | – | – | –
3 | FS22-172-003-AA/FS28-024-051 (bispecific antibody, human IgG1, kappa, L234A L235A, V domains shown, IgG1 mAb^2 with LALA) VH: EVQLLESGGGLVQPGGSLRLSCAASGFTLSYSSMSWVRQAPGKGLEWVSFITPSTGYTHYADSVKGRFTISRDNSKNTLYLQMNSLRAEDTAVYYCARRALIFDYWGQGTLVTVSS VL: EIVLTQSPGTLSLSPGERATLSCRASQSVSSSYLAWYQQKPGQAPRLLIYGASSRATGIPDRFSGSGSGTDFTLTISRLEPEDFAVYYCQQASSYPLTFGQGTKVEIKR | 105 | 1130 | 1800 | 0.08 | 0.04 | 0.477 | 768000 | 3.06 | 798000 | 0.4 | 153 | 42.4
4 | FS22-172-003-AA/FS28-256-018 (bispecific antibody, human IgG1, kappa, L234A L235A, V domains shown, IgG1 mAb^2 with LALA) VH: EVQLLESGGGLVQPGGSLRLSCAASGFTFTQTYMSWVRQAPGKGLEWVSNISPTYSTTNYADSVKGRFTISRDNSKNTLYLQMNSLRAEDTAVYYCARYNAYQIGLDYWGQGTLVTVSS VL: EIVLTQSPGTLSLSPGERATLSCRASQSVSSSYLAWYQQKPGQAPRLLIYGASSRATGIPDRFSGSGSGTDFTLTISRLEPEDFAVYYCQQSYYYPITFGQGTKVEIKR | – | 1260 | 903 | 3.22 | 3.71 | 3.6 | 348000 | 4.09 | 357000 | – | – | –
5 | FS22-172-003-AA/FS28-024-053 (bispecific antibody, human IgG1, kappa, L234A L235A, V domains shown, IgG1 mAb^2 with LALA) VH: EVQLLESGGGLVQPGGSLRLSCAASGFTLSYSSMSWVRQAPGKGLEWVSFITPSTGYTHYADSVKGRFTISRDNSKNTLYLQMNSLRAEDTAVYYCARRALVFDYWGQGTLVTVSS VL: EIVLTQSPGTLSLSPGERATLSCRASQSVSSSYLAWYQQKPGQAPRLLIYGASSRATGIPDRFSGSGSGTDFTLTISRLEPEDFAVYYCQQASSYPLTFGQGTKVEIKR | 111 | 1010 | 1440 | 0.07 | 0.04 | 0.579 | 783000 | 2.77 | 788000 | 0.42 | 166 | 46.4
6 | FS22-172-003-AA/FS28-256-014 (bispecific antibody, human IgG1, kappa, L234A L235A, V domains shown, IgG1 mAb^2 with LALA) VH: EVQLLESGGGLVQPGGSLRLSCAASGFTFTDTYMSWVRQAPGKGLEWVSNISPTYSTTNYADSVKGRFTISRDNSKNTLYLQMNSLRAEDTAVYYCARYNAYAAGLDYWGQGTLVTVSS VL: EIVLTQSPGTLSLSPGERATLSCRASQSVSSSYLAWYQQKPGQAPRLLIYGASSRATGIPDRFSGSGSGTDFTLTISRLEPEDFAVYYCQQSYYYPITFGQGTKVEIKR | – | 1360 | – | 3.58 | – | 0.727 | 476000 | 1.09 | 514000 | – | – | –
7 | FS22-172-003-AA/FS28-185 (bispecific antibody, human IgG1, kappa, L234A L235A, V domains shown, IgG1 mAb^2 with LALA; also called FS28-185 in CD137 mAb^2 format) VH: EVQLLESGGGLVQPGGSLRLSCAASGFTFTTSAMSWVRQAPGKGLEWVSRINPYEGETNYADSVKGRFTISRDNSKNTLYLQMNSLRAEDTAVYYCARGWSIATYYKSAMDYWGQGTLVTVSS VL: EIVLTQSPGTLSLSPGERATLSCRASQSVSSSYLAWYQQKPGQAPRLLIYGASSRATGIPDRFSGSGSGTDFTLTISRLEPEDFAVYYCQQSSYSAPVTFGQGTKVEIKR | 5 | – | – | – | – | 22.9 | 4930 | 28.4 | 4930 | 50.5 | 294 | 248
